Reference: the supplement of paper PMC9112550, “Optimization of the antimicrobial peptide Bac7 by deep mutational scanning” (BMC Biology, 2022)

System: Escherichia coli TOP10
Assay: shrunken log2 fold change of peptide-encoding DNA abundance (4.5 h post-induction vs induction); higher = less antimicrobial activity (less host growth inhibition)
Settings: time post-induction: 4.5 h; library: site-saturation at positions 5, 18, 19, 20
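Also: peptides expressed intracellularly from a pBAD plasmid library in pooled LB shake-flask culture, induced with 0.3% L-arabinose, DNA abundance read by NGS, three biological replicates, DESeq2 with apeglm shrinkage.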

RRIRSRPPRLPRPRPRPQMKPRP and RRIRCRPPRLPRPRPRPLDNPRP are within 0.2 log units of each other in “shrunken log2 fold change” value: -0.32 for the first, -0.235 for the second.

Going from RRIRNRPPRLPRPRPRPEMMPRP to RRIRLRPPRLPRPRPRPNILPRP, the “shrunken log2 fold change” value falls from 0.317 to -0.634.

RRIRGRPPRLPRPRPRPVTRPRP and RRIRGRPPRLPRPRPRPPSNPRP are within 0.2 log units of each other in “shrunken log2 fold change” value: 0.383 for the first, 0.374 for the second.

Going from RRIRFRPPRLPRPRPRPCYKPRP to RRIRDRPPRLPRPRPRPDYPPRP, the “shrunken log2 fold change” value rises from -0.228 to 0.00388.

First: RRIRTRPPRLPRPRPRPCDMPRP
Second: RRIRPRPPRLPRPRPRPEKTPRP
The “shrunken log2 fold change” value of the first is lower: -0.729 for the first, 0.037 for the second.

Going from RRIRGRPPRLPRPRPRPPRVPRP to RRIRARPPRLPRPRPRPRIKPRP, the “shrunken log2 fold change” value falls from 1.15 to -0.00918.

RRIRDRPPRLPRPRPRPVGNPRP and RRIRQRPPRLPRPRPRPWKQPRP are within 0.2 log units of each other in “shrunken log2 fold change” value: 0.114 for the first, -0.08 for the second.

Compared with RRIRGRPPRLPRPRPRPDMAPRP, RRIRGRPPRLPRPRPRPFIIPRP is lower in “shrunken log2 fold change” value: 0.882 for the first, 0.102 for the second.

Compared with RRIRRRPPRLPRPRPRPYDFPRP, RRIRARPPRLPRPRPRPGDNPRP is higher in “shrunken log2 fold change” value: -0.296 for the first, 0.133 for the second.

Compared with RRIRIRPPRLPRPRPRPTSSPRP, RRIRNRPPRLPRPRPRPVQCPRP is higher in “shrunken log2 fold change” value: -0.25 for the first, -0.0226 for the second.

First: RRIRERPPRLPRPRPRPNGEPRP
Second: RRIRMRPPRLPRPRPRPQMSPRP
The “shrunken log2 fold change” value of the first is lower: -0.0424 for the first, 0.174 for the second.

Going from RRIRARPPRLPRPRPRPFALPRP to RRIRGRPPRLPRPRPRPEHMPRP, the “shrunken log2 fold change” value rises from 0.185 to 0.396.

Going from RRIRPRPPRLPRPRPRPSECPRP to RRIRWRPPRLPRPRPRPHNWPRP, the “shrunken log2 fold change” value rises from -0.651 to 0.0898.

First: RRIRQRPPRLPRPRPRPLLKPRP
Second: RRIRHRPPRLPRPRPRPFCMPRP
The “shrunken log2 fold change” value of the first is higher: -0.321 for the first, -1.09 for the second.

First: RRIRMRPPRLPRPRPRPSGGPRP
Second: RRIRMRPPRLPRPRPRPDVGPRP
The “shrunken log2 fold change” value of the first is higher: 0.738 for the first, 0.0278 for the second.

Going from RRIRHRPPRLPRPRPRPEHFPRP to RRIRERPPRLPRPRPRPWAYPRP, the “shrunken log2 fold change” value falls from -0.00153 to -0.552.

Compared with RRIRERPPRLPRPRPRPHYPPRP, RRIRLRPPRLPRPRPRPDFSPRP is higher in “shrunken log2 fold change” value: -0.649 for the first, 0.177 for the second.

First: RRIRWRPPRLPRPRPRPDFFPRP
Second: RRIRIRPPRLPRPRPRPVTAPRP
The “shrunken log2 fold change” value of the first is higher: 0.204 for the first, -0.299 for the second.

Going from RRIRSRPPRLPRPRPRPYNNPRP to RRIRKRPPRLPRPRPRPSVPPRP, the “shrunken log2 fold change” value rises from -0.785 to 0.21.

RRIRTRPPRLPRPRPRPCADPRP and RRIRHRPPRLPRPRPRPMKQPRP are within 0.2 log units of each other in “shrunken log2 fold change” value: -0.0062 for the first, -0.0525 for the second.

Compared with RRIRMRPPRLPRPRPRPCGGPRP, RRIRIRPPRLPRPRPRPWGSPRP is lower in “shrunken log2 fold change” value: 1.19 for the first, -0.488 for the second.

Going from RRIRCRPPRLPRPRPRPKQRPRP to RRIRGRPPRLPRPRPRPVVGPRP, the “shrunken log2 fold change” value rises from 0.222 to 0.735.

RRIRFRPPRLPRPRPRPKPFPRP and RRIRCRPPRLPRPRPRPFDGPRP are within 0.2 log units of each other in “shrunken log2 fold change” value: 0.0515 for the first, -0.0927 for the second.

First: RRIRIRPPRLPRPRPRPRMYPRP
Second: RRIRGRPPRLPRPRPRPIVMPRP
The “shrunken log2 fold change” value of the first is lower: -0.33 for the first, -0.0978 for the second.

First: RRIRTRPPRLPRPRPRPGMPPRP
Second: RRIRFRPPRLPRPRPRPFCMPRP
The “shrunken log2 fold change” value of the first is higher: -0.0497 for the first, -0.62 for the second.

Going from RRIRARPPRLPRPRPRPDCIPRP to RRIRKRPPRLPRPRPRPSCIPRP, the “shrunken log2 fold change” value falls from 0.446 to -0.0677.

RRIRFRPPRLPRPRPRPMEPPRP and RRIRNRPPRLPRPRPRPELDPRP are within 0.2 log units of each other in “shrunken log2 fold change” value: 0.039 for the first, 0.0611 for the second.

Going from RRIRRRPPRLPRPRPRPPFWPRP to RRIRIRPPRLPRPRPRPPQYPRP, the “shrunken log2 fold change” value falls from 0.959 to -0.226.

First: RRIRVRPPRLPRPRPRPDQNPRP
Second: RRIRLRPPRLPRPRPRPGPGPRP
The “shrunken log2 fold change” value of the first is lower: -0.0845 for the first, 0.279 for the second.

RRIRQRPPRLPRPRPRPDSNPRP and RRIRNRPPRLPRPRPRPAVSPRP are within 0.2 log units of each other in “shrunken log2 fold change” value: -0.382 for the first, -0.203 for the second.

Compared with RRIRDRPPRLPRPRPRPTWRPRP, RRIRMRPPRLPRPRPRPEQAPRP is higher in “shrunken log2 fold change” value: 0.756 for the first, 4.07 for the second.

RRIRARPPRLPRPRPRPWLKPRP and RRIRNRPPRLPRPRPRPERCPRP are within 0.2 log units of each other in “shrunken log2 fold change” value: -0.0421 for the first, 0.0334 for the second.

Compared with RRIRPRPPRLPRPRPRPATFPRP, RRIRGRPPRLPRPRPRPFGEPRP is higher in “shrunken log2 fold change” value: -0.305 for the first, 0.793 for the second.

First: RRIRCRPPRLPRPRPRPHGKPRP
Second: RRIRCRPPRLPRPRPRPSYDPRP
The “shrunken log2 fold change” value of the first is higher: -0.15 for the first, -0.428 for the second.

Compared with RRIRIRPPRLPRPRPRPSNKPRP, RRIRGRPPRLPRPRPRPNGYPRP is higher in “shrunken log2 fold change” value: -1.01 for the first, -0.00669 for the second.

Compared with RRIRNRPPRLPRPRPRPYCNPRP, RRIRPRPPRLPRPRPRPIWVPRP is higher in “shrunken log2 fold change” value: -0.672 for the first, 0.0645 for the second.

Compared with RRIRNRPPRLPRPRPRPEQKPRP, RRIRTRPPRLPRPRPRPHLLPRP is lower in “shrunken log2 fold change” value: -0.00208 for the first, -0.411 for the second.

Going from RRIRRRPPRLPRPRPRPMSIPRP to RRIRTRPPRLPRPRPRPAAAPRP, the “shrunken log2 fold change” value rises from -0.465 to 0.618.

Going from RRIRVRPPRLPRPRPRPFGTPRP to RRIRERPPRLPRPRPRPTIDPRP, the “shrunken log2 fold change” value falls from -0.0129 to -0.227.

RRIRPRPPRLPRPRPRPAKEPRP and RRIRDRPPRLPRPRPRPFISPRP are within 0.2 log units of each other in “shrunken log2 fold change” value: 0.0354 for the first, -0.0503 for the second.

RRIRNRPPRLPRPRPRPHPHPRP and RRIRPRPPRLPRPRPRPWYIPRP are within 0.2 log units of each other in “shrunken log2 fold change” value: -0.576 for the first, -0.472 for the second.

RRIRYRPPRLPRPRPRPDKVPRP and RRIRNRPPRLPRPRPRPYFSPRP are within 0.2 log units of each other in “shrunken log2 fold change” value: -0.102 for the first, -0.225 for the second.

RRIRHRPPRLPRPRPRPTYRPRP and RRIRRRPPRLPRPRPRPNLRPRP are within 0.2 log units of each other in “shrunken log2 fold change” value: -0.0234 for the first, 0.00766 for the second.

Compared with RRIRPRPPRLPRPRPRPTGYPRP, RRIRLRPPRLPRPRPRPAYEPRP is higher in “shrunken log2 fold change” value: -0.151 for the first, 2.25 for the second.

Compared with RRIRSRPPRLPRPRPRPWIRPRP, RRIRGRPPRLPRPRPRPPAAPRP is higher in “shrunken log2 fold change” value: -0.207 for the first, 1.63 for the second.

Compared with RRIRDRPPRLPRPRPRPCKTPRP, RRIRSRPPRLPRPRPRPLQMPRP is higher in “shrunken log2 fold change” value: -0.0377 for the first, 0.24 for the second.

First: RRIRERPPRLPRPRPRPTWPPRP
Second: RRIRTRPPRLPRPRPRPYCPPRP
The “shrunken log2 fold change” value of the first is higher: 0.219 for the first, -0.821 for the second.

First: RRIRFRPPRLPRPRPRPQNLPRP
Second: RRIRQRPPRLPRPRPRPAWVPRP
The “shrunken log2 fold change” value of the first is lower: -0.218 for the first, 0.0382 for the second.

Compared with RRIRVRPPRLPRPRPRPNNNPRP, RRIRDRPPRLPRPRPRPYCSPRP is higher in “shrunken log2 fold change” value: -0.661 for the first, -0.335 for the second.

RRIRFRPPRLPRPRPRPIPYPRP and RRIRPRPPRLPRPRPRPEWNPRP are within 0.2 log units of each other in “shrunken log2 fold change” value: -0.102 for the first, 0.07 for the second.

Compared with RRIRERPPRLPRPRPRPMRGPRP, RRIRMRPPRLPRPRPRPLTMPRP is lower in “shrunken log2 fold change” value: 1.19 for the first, 0.24 for the second.

First: RRIRVRPPRLPRPRPRPWTEPRP
Second: RRIRMRPPRLPRPRPRPEMMPRP
The “shrunken log2 fold change” value of the first is lower: -0.0547 for the first, 0.316 for the second.

RRIRVRPPRLPRPRPRPVKLPRP and RRIRRRPPRLPRPRPRPDSMPRP are within 0.2 log units of each other in “shrunken log2 fold change” value: -0.407 for the first, -0.251 for the second.

First: RRIRCRPPRLPRPRPRPMGTPRP
Second: RRIRPRPPRLPRPRPRPWGWPRP
The “shrunken log2 fold change” value of the first is lower: -0.159 for the first, 0.149 for the second.

Compared with RRIRTRPPRLPRPRPRPPLVPRP, RRIRPRPPRLPRPRPRPHHKPRP is lower in “shrunken log2 fold change” value: 0.184 for the first, -0.647 for the second.

RRIRDRPPRLPRPRPRPMCEPRP and RRIRQRPPRLPRPRPRPFISPRP are within 0.2 log units of each other in “shrunken log2 fold change” value: -0.0122 for the first, -0.0195 for the second.

Compared with RRIRWRPPRLPRPRPRPACEPRP, RRIRERPPRLPRPRPRPRRVPRP is higher in “shrunken log2 fold change” value: 0.11 for the first, 0.447 for the second.

RRIRNRPPRLPRPRPRPCRFPRP and RRIRVRPPRLPRPRPRPFTIPRP are within 0.2 log units of each other in “shrunken log2 fold change” value: -0.0153 for the first, -0.085 for the second.

RRIRLRPPRLPRPRPRPSFCPRP and RRIRYRPPRLPRPRPRPDLAPRP are within 0.2 log units of each other in “shrunken log2 fold change” value: -0.403 for the first, -0.344 for the second.

RRIRTRPPRLPRPRPRPLFLPRP and RRIRCRPPRLPRPRPRPHMSPRP are within 0.2 log units of each other in “shrunken log2 fold change” value: -0.184 for the first, -0.193 for the second.

RRIRHRPPRLPRPRPRPSFIPRP and RRIRCRPPRLPRPRPRPCFKPRP are within 0.2 log units of each other in “shrunken log2 fold change” value: -0.619 for the first, -0.603 for the second.

Compared with RRIRDRPPRLPRPRPRPSSGPRP, RRIRIRPPRLPRPRPRPCEDPRP is lower in “shrunken log2 fold change” value: -0.0626 for the first, -0.424 for the second.

For RRIRFRPPRLPRPRPRPAIAPRP, the “shrunken log2 fold change” value was 0.0519.
